Experiments:
[1] = target: GST-ABI-1Δ (N-terminal GST fusion to the product of the abi-1(tm494) allele) (C. elegans) (UniProt Q10929); assay: pull-down; GST, GST-ABI or GST-ABIΔ on glutathione beads incubated with 25 μl of a 100 μl 35S-labelled in vitro transcription/translation reaction; 2 h at 4 °C in PBB2 (25 mM HEPES pH 7.6, 150 mM NaCl, 5 mM MgCl2, 0.1 mM EDTA, 0.1% Tween-20, 0.25% BSA); washes with 300 and 250 mM NaCl; SDS-PAGE, autoradiography, phosphorimager quantitation
[2] = target: T1, GST-ABI-1 (glutathione-S-transferase fused to the N terminus of full-length C. elegans ABI-1) (C. elegans, UniProt Q10929 1-469); assay: as above; conditions: one partner purified
T1 construct: ABI-1, C. elegans homolog of the Abi proteins; full-length abi-1 from cDNA yk1204a12, bp 47-1,456; Cloned in pDEST15 (Gateway). bp 47-1,456 is 1,410 bp, i.e. 469 codons and a stop if the stop codon is included; not shown: GST, N-terminal, kept
T1 sequence (looked up): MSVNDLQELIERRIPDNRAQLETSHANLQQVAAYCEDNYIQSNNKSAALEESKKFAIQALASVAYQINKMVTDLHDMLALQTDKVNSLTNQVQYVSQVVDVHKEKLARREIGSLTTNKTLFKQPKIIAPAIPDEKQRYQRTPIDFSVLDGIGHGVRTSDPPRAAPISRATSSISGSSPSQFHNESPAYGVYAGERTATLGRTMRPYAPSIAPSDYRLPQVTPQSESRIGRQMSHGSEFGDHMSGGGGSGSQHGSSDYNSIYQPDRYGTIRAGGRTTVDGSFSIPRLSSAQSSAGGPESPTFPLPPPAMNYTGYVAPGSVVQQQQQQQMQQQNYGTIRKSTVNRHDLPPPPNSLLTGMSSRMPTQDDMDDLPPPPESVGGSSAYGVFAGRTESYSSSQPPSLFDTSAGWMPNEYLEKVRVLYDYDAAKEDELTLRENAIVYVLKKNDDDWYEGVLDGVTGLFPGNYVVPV

B1: ABL-1(112–611), N-terminal fragment of C. elegans ABL-1 (domain or fragment, UniProt P03949 112-611, looked up)
chain: SSSSSAPLFVALYDFHGVGEEQLSLRKGDQVRILGYNKNNEWCEARLYSTRKNDASNQRRLGEIGWVPSNFIAPYNSLDKYTWYHGKISRSDSEAILGSGITGSFLVRESETSIGQYTISVRHDGRVFHYRINVDNTEKMFITQEVKFRTLGELVHHHSVHADGLICLLMYPASKKDKGRGLFSLSPNAPDEWELDRSEIIMHNKLGGGQYGDVYEGYWKRHDCTIAVKALKEDAMPLHEFLAEAAIMKDLHHKNLVRLLGVCTHEAPFYIITEFMCNGNLLEYLRRTDKSLLPPIILVQMASQIASGMSYLEARHFIHRDLAARNCLVSEHNIVKIADFGLARFMKEDTYTAHAGAKFPIKWTAPEGLAFNTFSSKSDVWAFGVLLWEIATYGMAPYPGVELSNVYGLLENGFRMDGPQGCPPSVYRLMLQCWNWSPSDRPRFRDIHFNLENLISSNSLNDEVQKQLKKNNDKKLESDKRRSNVRERSDSKSRHSSHHD
modifications: labeled with 35S in vitro
notes: contains the SH3, SH2 and tyrosine kinase domains; Cloned in pDEST14 (Gateway) for expression in vitro; also called N-terminal half of ABL-1; source: in vitro translated (TNT T7 Quick Coupled Transcription/Translation system, Promega)
[1]
  fold less ABL-1(112–611) bound than by ABI-1: 3 fold
[2]
  fold binding in the ABI-1 lane over the GST lane (phosphorimager): 8 fold
